The supplement of paper PMC11865577

Key:
Assay in all cases: pull-down binding Z-score (relative to library population); higher = stronger binding
[1] = tested on: TO-N3-2 (biotin conjugate); details: RNA library: Library-2
How it was run: (§1)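 An RNA library (1 μg) carrying a Cy5 or Cy3 end label was heat-folded in phosphate/NaCl/KCl buffer, then incubated for 60 min at 25 °C with streptavidin beads loaded with 100 pmol of biotin-conjugated small molecule. The beads were washed three times, and bound RNA was released in hot SDS and hybridised to a DNA barcode microarray for 20 h at 55.5 °C. Each binding score was derived by subtracting the signal from beads without compound, averaging the barcoded replicate probes after removing the highest and lowest, and expressing the result as a Z-score relative to the library mean and standard deviation.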

TO-N3 (biotin conjugate) = details: RNA library: Library-2
How it was run: as §1

[2] = tested on: G-clamp-N3 (biotin conjugate); details: RNA library: Library-1 (pre-miRNA loops + repeats)
How it was run: as §1

[3] = tested on: TO-3-N3-2 (biotin conjugate); details: RNA library: Library-2
How it was run: as §1

[4] = tested on: TO-3-N3 (biotin conjugate); details: RNA library: Library-2
How it was run: as §1

Sequence | pull-down binding Z-score [1] | pull-down binding Z-score (TO-N3 (biotin conjugate)) | pull-down binding Z-score [2] | pull-down binding Z-score [3] | pull-down binding Z-score [4]
CGCUGAUGUGCAUUCAACUCAUUCUCAGCA [hsa-mir-1468] | 0.000597 | 0.0154 | -1.2 | -0.226 | -0.116
CCCAUAUGGAUUACUUUGCUAUGGA [hsa-mir-206] | 0.0791 | 0.036 | -0.287 | -0.188 | 0.0156
GCUGCAGAUCUUUGUCUAAGCAGC [hsa-mir-4498] | -0.274 | -0.555 | -0.879 | -0.207 | -0.346
GGCACCUACGAUACCCAGUGCC [hsa-mir-3116-2] | 0.165 | -0.383 | -0.645 | -0.0787 | -0.264
UUUUCGCUUUAUAUGUGACGAAAC [hsa-mir-495] | -0.531 | -0.787 | 0.0902 | 0.125 | -0.605
GGAGCCCGAGCAGCCGCGGUGAA [hsa-mir-7706] | 2.55 | 2.17 | -1.54 | 0.551 | 1.29
CUGGUGUUCUCACGCAAAGUGGCCAGGGUGUGGGAGACUAGA [hsa-mir-7161] | 1.34 | 1.14 | 2.32 | 0.556 | 0.688
CCGACUCUGAGUAUGAUAGAAGUC [hsa-mir-148a] | 2.33 | 1.48 | -1.56 | 0.613 | 0.905
UGUUGAGCGCAGUAAGACAACA [hsa-mir-3529] | -0.0925 | -0.482 | 0.892 | -0.0511 | -0.51
AUUCUGGAGUCCAUCUAGAG [hsa-mir-1182] | -0.297 | -0.598 | -1.08 | -0.378 | -0.538
AGCCCUGGGCUCCUCAGCAAACCUACUGGAU [hsa-mir-3174] | 0.975 | 0.857 | -1.41 | 0.3 | 0.494
ACAGUGGACUUGGUGACGCUGU [hsa-mir-675] | -0.259 | -0.456 | 1.67 | -0.252 | -0.46
GUGGAAGUGCCCACUGGUUCCA [hsa-mir-194-2] | 1.32 |  | -0.472 | 0.341 | 0.425
CCCAUAUAAUAUUAGGGG [hsa-mir-4483] | -0.667 | -0.783 | 2.5 | 0.176 | -0.469
ACUAAUUUUUCCACUAGUUAGU [hsa-mir-4424] | -1.16 | -0.137 | -0.61 | -0.199 | 0.228
AAGCUGACAGACAGCUG [hsa-mir-5691] | 0.218 | 0.144 | 1.16 | -0.398 | -0.057
CGGGCCCCUCCCCUCAAUGGGCCCG [hsa-mir-5685] | -0.886 | -0.493 | 0.108 | -0.162 | -0.255
GCAGCAGGCACCUGCUUCC [hsa-mir-6868] | 1.49 | 0.984 | -0.816 | 0.16 | 0.367
CACGGUGUCUGCGGGAGGAGACCAUG [hsa-mir-4757] | 0.821 | 0.828 | -0.814 |  | 0.515
UGUUCACGUGGAGAGGAGUUAAACA [hsa-mir-499b] |  | 0.423 | 0.339 | 0.375 | 0.0485
UGGGGUUGGGGUUGGGGUUGGGGUUGGGGUUGGGGU [G4_(UGGGGU)6] |  |  | 1.14 |  | 
UGGGGUUGGGGUUGGGGUUGGGGUUGGGGUUGGGGUUGGGGUUGGGGU [G4_(UGGGGU)8] |  |  | 1.45 |  | 
UCAUUUUCCUUAAAAAAUGA [hsa-mir-3128] |  | -1.09 | -1.07 | -0.469 | -0.529

Sequence | pull-down binding Z-score [1] | pull-down binding Z-score (TO-N3 (biotin conjugate)) | pull-down binding Z-score [2] | pull-down binding Z-score [3] | pull-down binding Z-score [4]
UGGGUUGGGUUGGGUUGGGUUGGGUUGGGU [G4_(UGGGU)6] |  |  | 1.62 |  | 
GACAUUGCCAGAGGAUGGGCAGCAGAC [hsa-mir-6855] | 1.17 | 0.788 | 2 | 0.334 | 
GUACUGGGUCUCUCUGGUUAGACCAGAUCUGAGCCUGGGAGCUCUCUGGCUAACUAGGGAACCCACUGC [HIV_2014_Siegfried_nucs_8982_9173_4] |  |  | 0.055 |  | 
CGCCCGACUUCGGGG [hsa-mir-4767] | 0.0319 | -0.314 | 0.767 |  | -0.34
GUCUCUCUGGUUAGACCAGAUCUGAGCCUGGGAGCUCUCUGGCUAACUAGGGAAC [HIV_2014_Siegfried_nucs_1_753_1] |  |  | -0.404 |  | 
CACGUGCUGCUUGUAUAGACAUGAG [hsa-mir-3659] | 0.528 | 1.11 | 0.468 |  | 0.88
UGGUUGGUUGGUUGGUUGGUUGGUUGGUUGGU [G4_(UGGU)8] |  |  | 0.443 |  | 
UUUAUGUGAACUAAAAUAUAAA [hsa-mir-513c] | -1 |  | -1.49 | -0.21 | -0.547
UGGGUUGGGUUGGGUUGGGUUGGGUUGGGUUGGGUUGGGU [G4_(UGGGU)8] |  |  | 0.596 |  | 
GGACCAGCCCAAAGGCCAGGCCUGACCC [hsa-mir-4780] | 1.62 |  | -0.253 | 0.11 | 0.125
UUCAGUUUCCUUACUGGUAA [hsa-mir-302e] | -0.299 |  | -0.769 | -0.353 | -0.394
UGUGGACAAGGGCCUUGUCUUAGACAGUCACU [hsa-mir-4318] |  | 0.983 | -0.432 | 0.359 | 0.603
UGGUUGGUUGGUUGGUUGGUUGGU [G4_(UGGU)6] |  |  | 1.53 |  | 
UUUGAAGUGUUCUAAAUGGUUCAAA [hsa-mir-424] | -1.05 | -0.738 | 1.09 |  | -0.532
CUUAGCUGUCUUUGAUAAAAAUCUCUAUGACAAACUUGUUUCAAGCUUUUUGGAAAUGAAGAGUGAAAAGCAAGUUGAACAAAAGAUCGCUGAG [SHAPE_invivo_SARS-CoV-2_Motif_73] | 0.552 | 0.0191 |  | 0.0166 | 0.216
CCUCUUGAGUGCAUUAAAGACCUUCUAGCACGUGCUGGUAAAGCUUCAUGCACUUUGUCCGAACAACUGGACUUUAUUGACACUAAGAGG [SHAPE_invitro_SARS-CoV-2_Multi_2_ComplexLevel_1] | 0.844 | 0.899 |  | -0.0693 | 0.756
GAUGGUCAAGUAGACUUAUUUAGAAAUGCCCGUAAUGGUGUUCUUAUUACAGAAGGUAGUGUUAAAGGUUUACAACCAUC | -0.181 | -0.421 |  | -0.245 | -0.346
AUGAUGUUUCUUUUUUAGCACAU | -1.28 | -1.09 |  | -0.427 | -0.696
GGCGAAUCUGGCGCC [IAV_invivo_NP_5_Motif_7+IAV_invivo_NP_5_Motif_7] | 0.288 | 0.493 |  | -0.231 | 0.577
GCAGUUAAAAUGUUUGAUGCUUACGUUAAUACGUUUUCAUCAACUUUUAACGU | -1.09 | -1.37 |  | -0.145 | -1.09
AAAGUGCUUUUGUUAAUUUAAAACAAUUACCAUUUU [SHAPE_invivo_SARS-CoV-2_Motif_363] | -1.63 | -1.18 |  | -0.408 | -0.825
UGACCAGUCUUCUUACAUCGUUGAUAGUGUUACAGUGAAGAAUGGUUCCAUCCAUCUUUACUUUGAUAAAGCUGGUCA | -0.863 | -0.675 |  | -0.33 | -0.506
CCAUGGGACAGGAACAGGAUACACCAUGG [IAV_invivo_PB1_2_Motif_4+IAV_invivo_PB1_2_Motif_4] | 0.927 | -0.056 |  | 0.154 | -0.411

Sequence | pull-down binding Z-score [1] | pull-down binding Z-score (TO-N3 (biotin conjugate)) | pull-down binding Z-score [2] | pull-down binding Z-score [3] | pull-down binding Z-score [4]
CCACAUAGAUCAUCCAAAUCCUAAAGGAUUUUGUGACUUAAAAGG [SHAPE_invivo_SARS-CoV-2_Motif_251] | -0.137 | -0.169 |  | -0.357 | -0.167
AGUUGCUUACUCUAAUAACU [DMSMaPseq_invitro_SARS-CoV-2_Motif_421] | -0.822 | -0.387 |  | -0.314 | -0.129
GUCACACCUUCGGGAACGUGGUUGAC | 0.518 | -0.0943 |  | -0.338 | -0.558
GCUUGGAGAAAAGC [SHAPE_invitro_SARS-CoV-2_Motif_326] | -0.491 | -0.705 |  | -0.278 | -0.536
GUUCUAAGUAUUGCUCCAAUAAUGUUCUCAAACAAAAUGGCGAGACUGGGAAAAGGGUAUAUGUUUGAGAGCAAGAGUAUGAAACUUAGAAC [IAV_invivo_PB1_2_Motif_18+IAV_invivo_PB1_2_Motif_18] | 1.25 | 1.12 |  | 0.578 | 0.629
CCAGUACCAGAGGUGAAAAUACUCAAUAAUUUGGGUGUGGACAUUGCUGCUAAUACUGUG | -0.0208 | 1.18 |  | 0.266 | 1.32
CAACCUAAAUAGAGGUAUG | -0.591 | -0.716 |  | -0.292 | -0.399
GGGAAUAUAAUCUC [IAV_invivo_NA_6_Motif_2+IAV_invivo_NA_6_Motif_2] | -0.715 | 1.33 |  | 0.038 | 1.52
UAGUGCUAUGCAGACAAUGCUUUUCACUA | -0.838 | -1.14 |  | -0.341 | -0.863
GAAGGUCUUAAUGACAACCUUC [SHAPE_invitro_SARS-CoV-2_Motif_33] | -1.39 | -1.28 |  | -0.502 | -0.78
GGAGGGCCUUCUACGGAAGGAGUGCC [IAV_invivo_M1_M2_7_Motif_16+IAV_invivo_M1_M2_7_Motif_16] | 1.57 | 0.646 |  | -0.0132 | 0.296
AGUUUUUGUACACAAUUAAACCGUGCUUUAACU | -1.04 | -0.618 |  | -0.252 | -0.534
UGGUUGGUUGGUUGGUUGGUUGGU [G4_r(UGGU)6] | 4.58 | 6.68 |  | 7.83 | 7.93
UGUAAGCACAAGCUGAUGAGUACGAACUUAUGUACUCAUUCGUUUCGGAAGAGACAGGUACGUUAAUAGUUAAUAGCGUACUUCUUUUUCUUGCUUUCG [DMSMaPseq_invitro_SARS-CoV-2_Multi_80_ComplexLevel_1] | -0.373 | -0.883 |  | -0.529 | -1.03
GAAGUCACACCUUC [SHAPE_invitro_SARS-CoV-2_Motif_534] | -0.517 | -0.137 |  | -0.725 | 0.0219
UAAAUAAGGGACACUUUGAUGGACAACAGGGUGAAGUACCAGUUUCUAUCAUUAAUAACACUGUUUACACAAAAGUUGAUGGUGUUGAUGUAGAAUUGUUUG | -0.111 | -0.00789 |  | 0.0932 | -0.266
CUUGAACAAUGGAACCUAGUAAUAGGUUUCCUAUUCCUUACAUGGAUUUGUCUUCUACAAUUUGCCUAUGCCAACAGG | -0.374 | -0.466 |  | -0.181 | -0.5
GAUCUCUUGUAGAUC | -0.498 | 0.342 |  | 0.0231 | 0.682
UAAGGAGAGUGUUCAGACAUUCUUUAAGCUUG [DMSMaPseq_invitro_SARS-CoV-2_Motif_43] | -0.426 | -0.507 |  | -0.244 | -0.408
UAUGUCUGAAGCAAAAUGUUGGACUGAGACUGACCUUACUAAAGGACCUCAUGAAUUUUGCUCUCAACAUA | -0.671 | 0.246 |  | -0.402 | 0.0274
GCGCCGCCAGAAACUGGCAGCGC [mismatch-CA] | -1.05 | 0.225 |  | -0.524 | 0.381
AGUCAUAGUCAGUUAGGUGGUUUACAUCUACUGAUUGGACU | -0.775 | -1.35 |  | -0.281 | -1.18
AAAGGACUGGUAUGAUUUUGUAGAAAACCCAGAUAUAUUACGCGUAUACGCCAACUUAGGUGAACGUGUACGCCAAGCUUU | 0.0415 | -0.193 |  | -0.0434 | -0.541
